Laboratory results as given in patent US20260103686A1, “MICROBIAL STRAIN, PROTEIN, AND METHOD FOR PRODUCING GALLIC ACID USING MICROBIAL STRAIN OR PROTEIN” (UNIVERSITY OF TSUKUBA, priority 2022, published 2026).

Tested on: O=C(O)c1ccc(O)c(O)c1
Experiment: purified protein, by the assay type
Conditions: other: PCA substrate, 200 µM NADPH, 10 µM FAD, pH 7.9, 25° C., 340 nm
Experimental: The cell-free extracts were subjected to a HisTrap HP column (GE healthcare) which was equilibrated with an equilibration buffer (20 mM Tris-HCl buffer (pH 7.9), 20 mM imidazole), and then fractions eluted with an eluent (20 mM Tris-HCl buffer (pH 7.9), 500 mM imidazole) were collected.
The protein concentrations of the purified enzyme liquids were measured using Bio-Rad Protein Assay Dye Reagent Concentrate (Bio-Rad, USA), and the purified enzyme liquids were diluted to 1 of mg/mL with a buffer. Thus, purified enzyme liquids protocatechuic acid 5-hydroxylases, HgPobA, HyPobA, PoPobA, HgPobA-TY and PaPobA, were prepared.
Using the purified enzyme liquids of HgPobA, HgPobA-TY, PoPobA, HyPobA and PaPobA described above, a reaction kinetic analysis was conducted.

Substance: Pseudomonas aeruginosa-derived PobA (PaPobA), p-hydroxybenzoate hydroxylase, wild type, SEQ ID NO: 28 (Pseudomonas aeruginosa PAO1)
- Km: 140 µM
